Data taken from article PMC7809202, “Identification of fidelity-governing factors in human recombinases DMC1 and RAD51 from cryo-EM structures” (Nature Communications, 2021).
Numbering of substitutions follows the chain as printed. Names may count otherwise.

Tests used:
[1] = target: T1, human RAD51 (Homo sapiens, UniProt Q06609, V273P/D274G); assay: cryo-EM structure of filament; conditions: 2 mM AMP-PNP, 5 mM CaCl2, pH 7.5, 37 °C; homologous dsDNA filament; ATP-binding site
T1 construct: untagged as described, human cDNA in pET11, E. coli BLR pRARE host; helical filament on dsDNA
T1 sequence (Q06609 2-339 V273P/D274G): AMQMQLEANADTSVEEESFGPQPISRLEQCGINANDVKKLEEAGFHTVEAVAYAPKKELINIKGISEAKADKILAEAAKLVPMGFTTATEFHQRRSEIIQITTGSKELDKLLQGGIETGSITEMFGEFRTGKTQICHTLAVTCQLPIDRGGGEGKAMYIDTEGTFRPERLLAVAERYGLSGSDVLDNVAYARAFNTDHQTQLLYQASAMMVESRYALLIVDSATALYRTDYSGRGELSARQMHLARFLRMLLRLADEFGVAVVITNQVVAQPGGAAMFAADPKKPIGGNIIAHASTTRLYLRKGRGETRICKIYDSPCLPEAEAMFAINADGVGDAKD

[2] = target: the molecule itself; assay: cryo-EM structure; helical filaments: 4 uM DMC1 (or RAD51) protein with 24 uM nucleotides of ssDNA (presynaptic) or dsDNA (postsynaptic) in 35 mM Tris-HCl pH 7.5, 108 mM KCl, 1 mM DTT, 2 mM AMP-PNP, 5 mM CaCl2, 37 °C, 30 min; helical reconstruction; protomer to protomer within a nucleoprotein filament
[3] = target: T2, DMC1-PvGd (Homo sapiens, UniProt Q14565 1-340, P274V;G275D); assay: EMSA; 2 mM ATP, 10 mM Mg2+; EMSA: 35 mM Tris-HCl pH 7.5, 1 mM DTT, 10 mM MgCl2, 100 ng/ul BSA, 50 mM KCl, 2 mM ATP, 37 °C 10 min; DNA 3 uM nucleotides or base pairs; conditions: protein: recombinant, tags: His6
T2 sequence: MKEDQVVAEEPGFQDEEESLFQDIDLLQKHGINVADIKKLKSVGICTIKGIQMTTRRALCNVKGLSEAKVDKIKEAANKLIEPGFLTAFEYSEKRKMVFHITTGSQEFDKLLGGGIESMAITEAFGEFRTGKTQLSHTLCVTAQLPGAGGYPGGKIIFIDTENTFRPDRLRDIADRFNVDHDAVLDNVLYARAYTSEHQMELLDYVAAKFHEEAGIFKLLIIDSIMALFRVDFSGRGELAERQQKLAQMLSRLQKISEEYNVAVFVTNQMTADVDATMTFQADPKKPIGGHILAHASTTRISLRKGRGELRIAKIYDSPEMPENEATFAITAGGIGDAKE

[4] = target: T3, DMC1-QmPvGd (Homo sapiens, UniProt Q14565 1-340, Q244M;P274V;G275D); assay: as above; conditions: protein: recombinant, tags: His6
T3 sequence: T2 sequence with Q244M

[5] = target: T4, DMC1 WT (Homo sapiens, UniProt Q14565 1-340); assay: cryo-EM structure; AMP-PNP; EMSA: 35 mM Tris-HCl pH 7.5, 1 mM DTT, 10 mM MgCl2, 100 ng/ul BSA, 50 mM KCl, 2 mM ATP, 37 °C 10 min; DNA 3 uM nucleotides or base pairs; conditions: protein: recombinant; tags: His6; single strand
T4 sequence: T2 sequence with V274P, D275G

[6] = target: T4, DMC1 WT; assay: cryo-EM structure; EMSA: 35 mM Tris-HCl pH 7.5, 1 mM DTT, 10 mM MgCl2, 100 ng/ul BSA, 50 mM KCl, 2 mM ATP, 37 °C 10 min; DNA 3 uM nucleotides or base pairs; conditions: protein: recombinant, tags: His6, blunt
[7] = target: T5, DMC1-Q244M (Qm) (Homo sapiens, UniProt Q14565 1-340, Q244M); assay: cryo-EM structure; DNA too flexible to be observed; EMSA: 35 mM Tris-HCl pH 7.5, 1 mM DTT, 10 mM MgCl2, 100 ng/ul BSA, 50 mM KCl, 2 mM ATP, 37 °C 10 min; DNA 3 uM nucleotides or base pairs; conditions: protein: recombinant; tags: His6; blunt
T5 sequence: T2 sequence with Q244M, V274P, D275G

[8] = label: 5'-32P (EMSA), single strand
[9] = label: 5'-32P on Oligo 1, blunt

Q: `Nc1ncnc2c1ncn2[C@@H]1O[C@H](COP(=O)(O)OP(=O)(O)NP(=O)(O)O)[C@@H](O)[C@H]1O` [AMP-PNP] was tested. Which “cryo-EM structure of filament” value [1] did it give?
A: solved the structure of the dsDNA filaments of the double mutant RAD51-VpDg

B1: human DMC1 (wild type) (natural protein)
chain: T2 sequence with V274P, D275G
notes: DMC1, human; cDNA in vector pRSFDuet; Protomer of a helical filament assembled on ssDNA or dsDNA with AMP-PNP and Ca2+; also called DMC1-WT; WT DMC1; source: E. coli RecA-deficient BLR strain with pRARE, purified (TALON, Source Q, macrohydroxyapatite, Mono Q)
Q: Does B1 bind [2]?
A: binds

B2: human DMC1-Q244M (natural protein)
chain: T2 sequence with Q244M, V274P, D275G
notes: DMC1, human; site-directed mutant of the DMC1 cDNA in pRSFDuet; Protomer of a helical filament assembled with homologous dsDNA, AMP-PNP and Ca2+; the DNA density was not observable in the map; also called DMC1-Qm; source: E. coli BLR pRARE, purified as described for the WT protein
Q: Does B2 bind [2]?
A: binds

B3: human RAD51-V273P/D274G (natural protein)
chain: MAMQMQLEANADTSVEEESFGPQPISRLEQCGINANDVKKLEEAGFHTVEAVAYAPKKELINIKGISEAKADKILAEAAKLVPMGFTTATEFHQRRSEIIQITTGSKELDKLLQGGIETGSITEMFGEFRTGKTQICHTLAVTCQLPIDRGGGEGKAMYIDTEGTFRPERLLAVAERYGLSGSDVLDNVAYARAFNTDHQTQLLYQASAMMVESRYALLIVDSATALYRTDYSGRGELSARQMHLARFLRMLLRLADEFGVAVVITNQVVAQPGGAAMFAADPKKPIGGNIIAHASTTRLYLRKGRGETRICKIYDSPCLPEAEAMFAINADGVGDAKD
notes: RAD51, human; site-directed mutant of the RAD51 cDNA in vector pET11; Protomer of a helical filament assembled on dsDNA with AMP-PNP and Ca2+; also called RAD51-VpDg; RAD51-V273P, D274G mutant
Q: Does B3 bind [2]?
A: binds

B4: Oligo 1 80-mer ssDNA (ssDNA)
DNA: TTATGTTCATTTTTTATATCCTTTACTTTATTTTCTCTGTTTATTCATTTACTTATTTTGTATTATCCTTATCTTATTTA
Q: With B4 as the molecule, how does the binding signal [3, 8] read?
A: ~60 % of WT binding (approx. 40% lost)

Q: And the binding signal [4, 8]?
A: ~40 % of WT binding (approx. 60% lost)

B5: Oligo 1/Oligo 2 80 bp dsDNA (dsDNA)
DNA 1: B4 DNA
DNA 2: TAAATAAGATAAGGATAATACAAAATAAGTAAATGAATAAACAGAGAAAATAAAGTAAAGGATATAAAAAATGAACATAA
Q: How did the binding signal [3, 9] turn out when B5 was run?
A: ~60 % of WT binding (approx. 40% lost)

Q: And the binding signal [4, 9]?
A: ~40 % of WT binding (approx. 60% lost)

B6: Oligo 1 80-mer ssDNA, unlabeled (ssDNA)
DNA: B4 DNA
Q: Does B6 bind [5]?
A: binds

B7: Oligo 3/Oligo 4 15 bp homologous dsDNA (dsDNA)
DNA 1: ACGGGCAACAGCTGA
DNA 2: TCAGCTGTTGCCCGT
Q: Does B7 bind [6]?
A: binds

Q: Does B7 bind [7]?
A: binds

B8: Oligo 3/Oligo 5 15 bp mismatched dsDNA (dsDNA)
DNA 1: ACGGGCAACAGCTGA
DNA 2: TCAGCTGTCGCCCGT
Q: Does B8 bind ([6]; one A-C mismatch)?
A: binds
